Results from article PMC5522101.

Target: VPAC1-C37/A-EYFP (Cys37/Ala mutant of VPAC1 fused with enhanced yellow fluorescent protein) (mouse (stated for the cDNA; the primers of Table 1 and residues 31-457 fit human VPAC1)) (UniProt P97751)
Test: radioligand binding; competition binding on the cell membrane fraction of CHO cells (50 ug protein/ml): 1 nM [125I]-VIP with or without unlabelled VIP, 60 min at 30°C at equilibrium; nonspecific binding with 2 uM unlabelled peptide; data calibrated by the EYFP fluorescence of the membrane fraction

Question: HSDAVFTDNYTRLRKQMAVKKYLNSILN [vasoactive intestinal peptide] was tested. Which Kd did it give?
Answer: 0.42 nM
